Experimental data published in the RNAGym collection of RNA variant scans (doi:10.1021/acssynbio.7b00057).

B1: Pistol ribozyme (parent)
chain: GGGUCGUUGUUCCAUAAUCGCGUGGAUAUGGCACGCAAGUUUCUACCGGGCACCGUAAAUGUCCGACUGGAGCCGUUCGGGCGGCUAUAAACAGACCUCAGGCCCGAAGCGUGGCGGCACCUGCCGCCGGUGGUAAAAAAGAUCGGAAGAGCACACGUCU

Variants of: B1
Assay: aptazyme ON/OFF ratio, guanine; higher = stronger switching; co-transcriptional cleavage with and without guanine

In order of falling “aptazyme ON/OFF ratio” value:
1. U7A U8G G9U U10C U11A  3.38
2. U7A U8G U10A U11A  2.54
3. U7A U8G G9U U10C  2.52
4. U7A U8G U10A  2.44
5. U7A U8G U10A U11G  1.95
6. U7A U8G U10C  1.75
7. U7A U8G G9U U10G U11A C12A  1.74
8. U7A U8G U10A U11A C12U C13A  1.72
9. U7A U8G G9U U10C U11G  1.71
10. U7A U8G G9U U11C C12A C13A  1.68
11. U7A U8G G9U U10C C12U  1.66
12. U7A U8G G9U U10G U11A C12U C13A  1.64
13. U7A U8G U10A U11A C12G C13U  1.63
14. U7A U8G U10C U11C C12A  1.62
15. U7A U8G U10C U11G C12A C13G  1.61
16. U7A U8G G9U U11A C12A  1.59
17. U7A U8G G9U U10C C13U  1.57
18. U7A U8G U10A U11A C12G C13A  1.56
19. U7A U8G U10A U11C C12G C13A  1.56
20. U7A U8G G9U U11C C12U  1.54
21. U7A U8G U10C U11C C12U  1.53
22. U7A U8G G9U U10C U11G C12U C13U  1.53
23. U7A U8G U10A U11C C12A C13U  1.53
24. U7A U8G G9U U10A U11G C12G C13U  1.52
25. U7A U8G G9U U10G C12U C13A  1.49
26. U7A U8G U10A U11C C12A  1.49
27. U7A U8G G9U U10A U11C C12U C13G  1.49
28. U7A U8G G9U U10A U11A C13A  1.48
29. U7A U8G G9U U10G  1.47
30. U7A U8G U10A U11A C12A  1.47
31. U7A U8G G9U U10G U11A C12G  1.46
32. U7A U8G U10A U11G C12G C13U  1.46
33. U7A U8G G9U U10C C12A C13A  1.46
34. U7A U8G U10C C13A  1.45
35. U7A U8G G9U U10C U11G C12A C13U  1.45
36. U7A U8G U10C U11C C12U C13A  1.45
37. U7A U8G G9U U11A C13U  1.44
38. U7A U8G U10A U11G C12G C13G  1.43
39. U7A U8G G9U U10G U11A C12U C13U  1.42
40. U7A U8G U10C U11C C12G  1.42
41. U7A U8G U10C U11G C12A C13A  1.42
42. U7A U8G G9U U10C U11G C12A C13G  1.41
43. U7A U8G U10A U11C C12U C13G  1.41
44. U7A U8G G9U U10C C12A  1.41
45. U7A U8G U10C C13U  1.4
46. U7A U8G G9U U11A C12G C13U  1.39
47. U7A U8G G9U U10A U11A C13U  1.39
48. U7A U8G G9U U11A C13A  1.38
49. U7A U8G U10A U11A C12A C13G  1.38
50. U7A U8G G9U U10C U11G C13G  1.38
51. U7A U8G G9U U11A C12G  1.38
52. U7A U8G G9U U11A C12U  1.38
53. U7A U8G G9U U10G U11G  1.38
54. U7A U8G G9U U11C C13U  1.38
55. U7A U8G U10A U11A C12U  1.38
56. U7A U8G G9U U10C U11A C12G C13U  1.37
57. U7A U8G G9U U10C U11C C12G  1.37
58. U7A U8G G9U U10G C12G C13A  1.37
59. U7A U8G G9U U10C U11G C12G C13A  1.36
60. U7A U8G G9U U10C U11C C12U  1.36
61. U7A U8G G9U U10C C12A C13U  1.35
62. U7A U8G U10C U11A C12U C13A  1.35
63. U7A U8G U10A U11A C12A C13A  1.34
64. U7A U8G G9U U10C C13A  1.33
65. U7A U8G U10A U11C C12U C13U  1.33
66. U7A U8G U10C C13G  1.32
67. U7A U8G G9U U10G C13G  1.32
68. U7A U8G G9U U10C U11G C13U  1.31
69. U7A U8G U10C U11A C12G C13U  1.31
70. U7A U8G G9U U10C U11G C12U C13G  1.31
71. U7A U8G G9U U10G C13A  1.3
72. U7A U8G G9U U10C U11C C12A  1.3
73. U7A U8G G9U U10G C12G C13U  1.3
74. U7A U8G U10A U11G C13U  1.29
75. U7A U8G U10A U11G C13A  1.29
76. U7A U8G U10A U11C C12U  1.29
77. U7A U8G G9U U11G C12U C13G  1.29
78. U7A U8G G9U U11G C12U C13U  1.29
79. U7A U8G G9U U10C U11A C12G C13G  1.28
80. U7A U8G G9U U10C U11G C13A  1.28
81. U7A U8G U10C U11A C12G C13G  1.28
82. U7A U8G U10A U11A C12U C13U  1.28
83. U7A U8G G9U U10C U11A C12G C13A  1.27
84. U7A U8G G9U U10G U11A C12U  1.27
85. U7A U8G G9U U10G C12A C13A  1.27
86. U7A U8G U10A U11A C12G C13G  1.26
87. U7A U8G G9U U11A C12G C13G  1.26
88. U7A U8G U10A U11C C12G C13G  1.26
89. U7A U8G G9U U10C U11G C12G C13G  1.26
90. U7A U8G G9U U11C C13A  1.26
91. U7A U8G G9U U11C C12G  1.26
92. U7A U8G U10A C12G C13G  1.26
93. U7A U8G U10A U11C C12A C13A  1.26
94. U7A U8G U10A U11C C12A C13G  1.26
95. U7A U8G G9U U11A C13G  1.25
96. U7A U8G G9U U10G U11A C13G  1.25
97. U7A U8G U10A U11C C13G  1.25
98. U7A U8G U10A U11A C12U C13G  1.25
99. U7A U8G G9U U10G C12U C13G  1.24
100. U7A U8G U10A C12G C13A  1.24
101. U7A U8G G9U U10C C12G  1.24
102. U7A U8G G9U U10G C13U  1.23
103. U7A U8G U10A U11G C13G  1.23
104. U7A U8G G9U U11C C12A  1.23
105. U7A U8G G9U U11G C12G C13A  1.22
106. U7A U8G G9U U11G C12G C13U  1.22
107. U7A U8G U10C U11A C12G C13A  1.22
108. U7A U8G G9U U10G U11C C12G C13U  1.22
109. U7A U8G G9U U10G C12U C13U  1.21
110. U7A U8G U10A U11C C12G C13U  1.21
111. U7A U8G G9U U10C C13G  1.21
112. U7A U8G G9U U10C U11G C12U C13A  1.21
113. U7A U8G U10A C12G C13U  1.21
114. U7A U8G G9U U10A U11C C12U C13A  1.21
115. U7A U8G G9U U10A U11C C12U C13U  1.2
116. U7A U8G G9U U11G C12G C13G  1.19
117. U7A U8G G9U U10G U11C C12A  1.19
118. U7A U8G G9U U10A U11G C12A C13U  1.19
119. U7A U8G U10C U11G C12A C13U  1.19
120. U7A U8G G9U U10G U11A C12U C13G  1.18
121. U7A U8G U10C U11C C12U C13G  1.18
122. U7A U8G U10A U11C C13A  1.18
123. U7A U8G G9U U10C U11G C12G C13U  1.18
124. U7A U8G U10C U11A C12U C13U  1.18
125. U7A U8G G9U U11G C12U C13A  1.18
126. U7A U8G G9U U10G U11A C13A  1.17
127. U7A U8G G9U U11C C12U C13A  1.17
128. U7A U8G U10C U11C C12U C13U  1.17
129. U7A U8G G9U U10C U11G C12A C13A  1.16
130. U7A U8G G9U U10G U11C C12G  1.16
131. U7A U8G G9U U10G U11C C12A C13U  1.16
132. U7A U8G U10A U11G C12G C13A  1.16
133. U7A U8G G9U U10G U11A  1.16
134. U7A U8G G9U U10C U11C  1.15
135. U7A U8G G9U U11C C12U C13G  1.15
136. U7A U8G G9U U10A U11A C13G  1.15
137. U7A U8G U10A U11C C12G  1.15
138. U7A U8G G9U U10G U11A C13U  1.14
139. U7A U8G G9U U10A U11G C12G C13G  1.14
140. U7A U8G G9U U10G U11C C12A C13A  1.14
141. U7A U8G U10A U11C C12U C13A  1.14
142. U7A U8G G9U U10G U11C C12A C13G  1.13
143. U7A U8G G9U U10G U11C C12G C13G  1.13
144. U7A U8G U10A U11A C12G  1.13
145. U7A U8G U10A U11A C12A C13U  1.12
146. U7A U8G G9U U10G U11C C13A  1.12
147. U7A U8G G9U U10A U11G C12A C13G  1.12
148. U7A U8G G9U U10C U11C C13G  1.12
149. U7A U8G G9U U11C C12A C13G  1.12
150. U7A U8G U10A U11C  1.11
151. U7A U8G G9U U11A C12G C13A  1.11
152. U7A U8G G9U U10A U11G C12A C13A  1.11
153. U7A U8G G9U U10G U11C C12G C13A  1.11
154. U7A U8G G9U U10G C12G C13G  1.11
155. U7A U8G G9U U11C C12A C13U  1.11
156. U7A U8G G9U U10G U11C C13G  1.07
157. U7A U8G G9U U10C U11C C13U  1.07
158. U7A U8G G9U U11C C12U C13U  1.07
159. U7A U8G G9U U11C C13G  1.06
160. U7A U8G G9U U10G U11C C13U  1.05
161. U7A U8G G9U U10A U11G C12G C13A  1.05
162. U7A U8G U10A U11C C13U  1.05
163. U7A U8G G9U U10G U11C C12U  1.04
164. U7A U8G G9U U10C U11C C13A  1.04
165. U7A U8G G9U U10G U11C  1.03
166. U7A U8G G9U U10C C12A C13G  1.01
167. U7A U8G U10C U11A C12U C13G  0.954
